In PMC9054013, “FCHO controls AP2’s initiating role in endocytosis through a PtdIns(4,5)P2-dependent switch” (Science Advances, 2022):

T1: Cμ2 (μ2 residues 160 to 435) (UniProt P84092 160-435)
T1 construct: AP2 μ2 subunit, C-terminal subdomain, residues 160 to 435; in the chimera crystals Cμ2 carries an N-terminal His6 tag or a thrombin-cleaved GST tag; also called His6μ2 (residues 160 to 435) wt; isolated Cμ2; source: E. coli BL21 plyS, purified (Ni-NTA, Superdex 200)
T1 sequence (looked up): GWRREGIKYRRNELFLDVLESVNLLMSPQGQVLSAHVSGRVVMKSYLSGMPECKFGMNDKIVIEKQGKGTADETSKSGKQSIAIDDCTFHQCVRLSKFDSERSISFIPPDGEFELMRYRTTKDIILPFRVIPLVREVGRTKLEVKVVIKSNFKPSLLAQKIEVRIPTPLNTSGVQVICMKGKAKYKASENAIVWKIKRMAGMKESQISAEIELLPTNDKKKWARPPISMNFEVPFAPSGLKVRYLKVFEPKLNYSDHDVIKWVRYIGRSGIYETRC

B1: FCHO2-N1+N2 EEK mutant (domain or fragment)
chain: NIPDVDAAGYSIAPETNQNDTKENHFYSSSDSDSEDEEPKKYRIEIKPMHPNNSHHTMASLDELKVSIGNITLSPAISRHS

Tests used:
[1] = biological target: T2, AP2 α-appendage (residues 695 to 938) (UniProt P17427 695-938); assay: ITC; α-appendage or β2-appendage with C block peptides; 100 mM tris pH 7.4, 150 mM NaCl, 0.25 mM TCEP; 12°C; peptides 1 to 5 mM titrated; details: both partners purified
T2 construct: AP2 α subunit (α2), appendage, residues 695 to 938; also called α2 ear; pGEX4T2α-appendage; source: E. coli BL21 plyS, purified (GST beads, thrombin, Superdex 200)

[2] = biological target: T1, Cμ2 (μ2 residues 160 to 435); assay: ITC; Cμ2 with FCHO2 constructs or peptides; 100 mM tris pH 7.4, 150 mM NaCl, 0.25 mM TCEP; 12°C; Nano ITC; details: both partners purified

T2 sequence (P17427 695-938): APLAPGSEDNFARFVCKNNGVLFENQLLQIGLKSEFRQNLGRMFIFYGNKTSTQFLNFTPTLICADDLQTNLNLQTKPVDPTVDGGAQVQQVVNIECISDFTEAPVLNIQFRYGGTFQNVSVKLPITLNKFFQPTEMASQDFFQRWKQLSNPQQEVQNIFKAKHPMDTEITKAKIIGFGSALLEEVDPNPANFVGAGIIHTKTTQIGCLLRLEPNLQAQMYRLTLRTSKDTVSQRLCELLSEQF

Row | Binder | Kd [1] [µM] | fold reduction of binding against FCHO2-N1+N2 wild type [2] [fold]
1 | QSEEQVSKNLFGPPAAAAFDHED (peptide, UniProt O14526 426-448, looked up) [FCHO1 C peptide, LES to AAA] | > 500 | 
2 | B1 |  | 5
